Where two headings read alike, the source gives them in different places.
What was measured:
[1] = molecular target: purified skeletal muscle actin (rabbit) (UniProt P68135); test: inhibition of actin polymerization (ultracentrifugation assay); apparent; skeletal muscle actin (18 µM) with increasing GST-RPEL (350–422 aa); 100 mM KCl, 2 mM MgCl2, 10 mM Tris-HCl pH 7.8, 20°C 60 min (legend: room temperature 30 minutes); 130,000 g 15 min; fraction of depolymerized actin by densitometry, nonlinear regression
[2] = molecular target: actin (Oryctolagus cuniculus) (UniProt P68135); settings: cited from earlier work
[3] = molecular target: actin (Oryctolagus cuniculus) (UniProt P68135); settings: cited from earlier work; remark: listed apart in the source
[4] = molecular target: actin (Oryctolagus cuniculus) (UniProt P68135); settings: cited from earlier work; remark: listed apart in the source

Substance: GST-RPEL construct of scapinin, 350–422 aa (domain or fragment)
- Kd [1]: 0.018 µM
- stoichiometry N [1]: 1.21

Substance: MAL RPEL1 (from UniProt Q8K4J6)
- Kd [2]: 5.4 µM

Substance: MAL RPEL2 (from UniProt Q8K4J6)
- Kd [3]: 2.3 µM

Substance: MAL RPEL3 (from UniProt Q8K4J6)
- Kd [4]: 18.8 µM

Reference: PMC2626280
